The source of these data is patent US20210324096A1 (Genmab, published 2021).

Assay [1] addresses T1, DR5ECD-FcHistag (human).
T1 construct: 453 is the counted length of the printed entry; also called DR5ECD-FcHisCtag; DRSECD-FcHistag
Briefly: crossblock sandwich ELISA, antibody coated, competitor IgG1-DR5-chTRA8-F405L. For orientation: In an ELISA, binding on a coated surface is turned into a signal by an enzyme label.

In assay [2] the target is T2, murine (Mus musculus) DR5, full-length (mouse, UniProt Q9QZM4 53-381).
T2 construct: also called mouse DR5
As to the kind of experiment: flow cytometry on transfected CHO cells (FIG. 5D). On the technique in general: In flow cytometry, cells or beads pass a laser one at a time.

For assay [3], the target named is T3, human DR5 (death receptor 5), full-length (human, UniProt O14763 56-440).
T3 construct: also called TRAILR2; CD262
As to the kind of experiment: flow cytometry on HCT 116 cells.

Assay [4] deals with T1, DR5ECD-FcHistag. Briefly: crossblock sandwich ELISA, antibody coated, competitor IgG1-hDR5-01-E430G.
The target of assay [5] is T4, cynomolgus monkey DR5 protein with deletion of amino acids 185-213 and death domain loss-of-function mutation … (cynomolgus monkey (Macaca fascicularis)).
T4 construct: Transiently expressed on CHO cells; also called Cyno DR5Mfdel-K420N; cynomolgus DR5-transfected CHO
T4 chain: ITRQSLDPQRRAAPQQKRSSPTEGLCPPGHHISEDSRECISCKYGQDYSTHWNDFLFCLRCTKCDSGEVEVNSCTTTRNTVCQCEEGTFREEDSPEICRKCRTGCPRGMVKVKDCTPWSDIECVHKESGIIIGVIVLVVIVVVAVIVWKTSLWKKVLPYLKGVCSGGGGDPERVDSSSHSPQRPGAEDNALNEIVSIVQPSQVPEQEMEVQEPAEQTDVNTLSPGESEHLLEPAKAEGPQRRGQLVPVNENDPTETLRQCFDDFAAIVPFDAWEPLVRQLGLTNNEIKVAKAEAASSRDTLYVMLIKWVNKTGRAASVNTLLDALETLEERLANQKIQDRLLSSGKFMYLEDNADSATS
As to the kind of experiment: flow cytometry on cynomolgus DR5-transfected CHO cells, four experiments (SD 0.084).

For assay [6], the target named is T1, DR5ECD-FcHistag. Briefly: crossblock sandwich ELISA, antibody coated, competitor IgG1-DR5-CONA-K409R.

B1: IgG1-DR5-CONA-K409R (antibody, V domains shown)
VH: QVQLQESGPGLVKPSQTLSLTCTVSGGSISSGDYFWSWIRQLPGKGLECIGHIHNSGTTYYNPSLKSRVTISVDTSKKQFSLRLSSVTAADTAVYYCARDRGGDYYYGMDVWGQGTTVTVSS
VL: EIVLTQSPGTLSLSPGERATLSCRASQGISRSYLAWYQQKPGQAPSLLIYGASSRATGIPDRFSGSGSGTDFTLTISRLEPEDFAVYYCQQFGSSPWTFGQGTKVEIK
notes: Expressed as IgG1,kappa with K409R (EU); also called IgG1-CONA-K409R; conatumumab variant
Consider B1, for which the binding result in assay [1] is “binds”.

B2: IgG1-hDR5-05-F405L (antibody, name in EU numbering)
heavy: not shown
light: DIQLTQSPSSLSASVGDRVTITCSASSSVSYMYWYQQKPGKAPKPWIYRTSNLASGVPSRFSGSGSGTDFTLTISSLQPEDFATYYCQQYHSYPPTFGGGTKVEIKRTVAAPSVFIFPPSDEQLKSGTASVVCLLNNFYPREAKVQWKVDNALQSGNSQESVTEQDSKDSTYSLSSTLTLSKADYEKHKVYACEVTHQGLSSPVTKSFNRGEC
notes: IgG1,kappa; F405L is counted by EU numbering, not on the entry; also called humanized DR5-05
Take B2: the binding result in assay [2] is on record as “no binding (tested: 10 µg/mL)”.

B3: IgG1-hDR5-05-N55D-F405L (antibody, V domains shown)
VH: QVQLVQSGAEVKKPGASVKVSCKASGFNIKDTHMHWVRQAPGQRLEWIGRIDPADGNTEYDQKFQGRVTITVDTSASTAYMELSSLRSEDTAVYYCARWGTNVYFAYWGQGTLVTVSS
VL: DIQLTQSPSSLSASVGDRVTITCSASSSVSYMYWYQQKPGKAPKPWIYRTSNLASGVPSRFSGSGSGTDFTLTISSLQPEDFATYYCQQYHSYPPTFGGGTKVEIKR
notes: IgG1,kappa; deamidation-mimicking variant
Consider B3, for which the binding result in assay [3] was “binds”.

B4: IgG1-hDR5-05-E430G (antibody)
heavy: not shown
light: B2 light
notes: IgG1,kappa
What is called EC50 is the concentration giving half of the maximal effect. Regarding B4, the binding result in assay [4] was “binds”. The same molecule came in with an EC50 in assay [5] of 0.17 µg/mL.

B5: IgG1-DR5-chTRA8-F405L (antibody, name in EU numbering, V domains shown)
VH: EVMLVESGGGLVKPGGSLKLSCAASGFTFSSYVMSWVRQTPEKRLEWVATISSGGSYTYYPDSVKGRFTISRDNAKNTLYLQMSSLRSEDTAMYYCARRGDSMITTDYWGQGTTLTVSS
VL: DIVMTQSHKFMSTSVGDRVSITCKASQDVGTAVAWYQQKPGQSPKLLIYWASTRHTGVPDRFTGSGSGTDFTLTISNVQSEDLADYFCQQYSSYRTFGGGTKLEIKR
notes: F405L is counted by EU numbering; also called IgG1-chTRA8-F405L
Take B5: the binding result in assay [6] is on record as “binds”.
